# According to publication PMC10252337:
# Assays:
# [1] = target: eel luteinizing hormone receptor, wild type (eel)
# [2] = target: eel luteinizing hormone receptor D576G (constitutively activating mutant) (eel)
# [3] = target: eel luteinizing hormone receptor R476H (inactivating mutant) (eel)
# [4] = target: eel luteinizing hormone receptor, wild type (eel); remark: listed apart in the source
# [5] = target: eel luteinizing hormone receptor D576G (constitutively activating mutant) (eel); remark: listed apart in the source
Substance,"plateau of agonist-induced loss of cell-surface receptor (ELISA on HEK-293 cells, 0-60 min, one-phase exponential decay) [1]","t1/2 of agonist-induced loss of cell-surface receptor (ELISA on HEK-293 cells, 0-60 min, one-phase exponential decay) [1] [min]","plateau of agonist-induced loss of cell-surface receptor (ELISA on HEK-293 cells, 0-60 min, one-phase exponential decay) [2]","t1/2 of agonist-induced loss of cell-surface receptor (ELISA on HEK-293 cells, 0-60 min, one-phase exponential decay) [2] [min]","plateau of agonist-induced loss of cell-surface receptor (ELISA on HEK-293 cells, 0-60 min, one-phase exponential decay) [3]","t1/2 of agonist-induced loss of cell-surface receptor (ELISA on HEK-293 cells, 0-60 min, one-phase exponential decay) [3] [min]","EC50 of cAMP production (HTRF) in CHO-K1 cells expressing the receptor, stimulated with rec-eel LH for 30 min [4] [µg/mL]","EC50 of cAMP production (HTRF) in CHO-K1 cells expressing the receptor, stimulated with rec-eel LH for 30 min [5] [µg/mL]"
"recombinant eel luteinizing hormone, single-chain eel LHβ/α (ligand)",64.2 % of control,0.9,59.8 % of control,0.6,61.9 % of control,0.6,0.177,0.0948
recombinant equine chorionic gonadotropin (from UniProt P08751 21-169; P01220 25-120) (ligand),56.8 % of control,2.5,46.3 % of control,2.1,42.6 % of control,1.9,,
